Reference: patent US10781452B2, “FLT3 receptor antagonists for the treatment or the prevention of pain disorders” (INSTITUT NATIONAL DE LA SANTE ET DE LA RECHERCHE MEDICALE …, priority 2010, dated 2020)

Assays:
TRPV1 = target: T1, TRPV1 (Mus musculus, UniProt Q704Y3); test: FL-induced mechanical hyperalgesia with intraplantar TRPV1 inhibitor; assay type: in vivo, mice; conditions: intraplantar 10 μl at 30 μg/ml, one hour before FL injection; 12 h
T1 construct: from tissue; host or cells: living mice, hindpaw
T1 sequence (Q704Y3 whole entry): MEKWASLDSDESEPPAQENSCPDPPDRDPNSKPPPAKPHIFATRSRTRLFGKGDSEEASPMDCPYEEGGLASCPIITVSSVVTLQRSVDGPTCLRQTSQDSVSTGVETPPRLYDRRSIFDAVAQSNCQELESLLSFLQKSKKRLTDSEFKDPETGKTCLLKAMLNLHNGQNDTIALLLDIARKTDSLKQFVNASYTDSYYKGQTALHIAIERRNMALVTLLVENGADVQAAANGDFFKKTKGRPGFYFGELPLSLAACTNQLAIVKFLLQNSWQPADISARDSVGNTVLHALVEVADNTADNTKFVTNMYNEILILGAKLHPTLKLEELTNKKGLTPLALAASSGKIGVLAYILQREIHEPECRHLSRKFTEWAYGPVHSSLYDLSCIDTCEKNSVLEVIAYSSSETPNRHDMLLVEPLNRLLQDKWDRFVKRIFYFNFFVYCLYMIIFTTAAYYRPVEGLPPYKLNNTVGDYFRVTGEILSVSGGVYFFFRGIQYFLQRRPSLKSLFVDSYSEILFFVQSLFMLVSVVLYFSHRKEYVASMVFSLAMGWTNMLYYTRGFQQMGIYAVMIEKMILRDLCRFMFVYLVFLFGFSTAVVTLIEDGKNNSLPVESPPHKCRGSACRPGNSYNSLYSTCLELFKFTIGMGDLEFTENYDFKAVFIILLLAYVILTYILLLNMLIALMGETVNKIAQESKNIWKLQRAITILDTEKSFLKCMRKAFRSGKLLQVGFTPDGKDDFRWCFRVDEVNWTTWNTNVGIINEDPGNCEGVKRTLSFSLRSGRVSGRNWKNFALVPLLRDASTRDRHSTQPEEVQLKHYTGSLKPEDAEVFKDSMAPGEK
Protocol: (§1) Mechanical withdrawal thresholds: The sensitivity to punctuate mechanical stimuli was assessed using the dynamic plantar aesthesiometer (Bioseb, France). Each mouse was placed in a Plexiglass chamber. Sixty minutes later, a mechanical stimulus (a small-diameter blunt metallic filament) was applied to the plantar surface with an increasing force and the paw withdrawal latencies were measured. For each point, mice were tested three times and the responses for each paw were averaged.
To investigate the potential role(s) of FL in modulating noxious sensitivity through the activation of TRPV1 receptor in vivo, we tested the effect of the TRPV1 inhibitor sb-366791 on the FL-induced mechanical hyperalgesia.

mice hindpaws [1] = test: Mechanical withdrawal (von Frey hair filaments) after hindpaw injection of FL or NGF; assay type: in vivo
Protocol: (§2) Animals: Adult Swiss mice (8-10 week old) (CERJ, Le Genest St Isle, France) were used according to the guidelines of the International Association for the Study of Pain. Mice were housed in cages with a 12/12 hr light/dark cycle and fed food and water ad libitum.
(§3) Behavioral experiments: Behavioral responsiveness of the mice was tested following one week of habituation to the testing environment and the observer.
as §1
We next tested the role of FL in modulating noxious mechanical sensitivity in vivo. […] For comparison, NGF (100ng/10μ1) induced a foot withdrawal response decrease of 30% at 12 H (P<0.001) (FIG. 1B).

mice hindpaws [2] = test: Thermo-nociceptive testing (radiant heat paw withdrawal) after hindpaw injection of FL or NGF; assay type: in vivo; conditions: for paw withdrawal latency drop (radiant heat stimulus), thermal hyperalgesia: 12 H after hindpaw injection of 100 ng/10 μl, vs vehicle-injected hindpaws
Protocol: as §2, §3
Thermo-nociceptive testing: Nociceptive threshold to acute thermal stimulation was measured using the paw retrieval test (Bioseb, France). Focused light from 12.5 W projection bulb was applied to the middle of the plantar surface of the hind paw (3 mm diameter). The projection bulb was turned off as soon as the mouse removed its paw, and a digital timer connected in series measured the paw withdrawal latency to an accuracy of 0.1 s. We used a cut-off latency of 15 s to avoid the possibility of tissue damage. For each point, mice were tested three times and the responses for each paw were averaged.
FL produces thermal and mechanical hyperalgesia in vivo: To investigate the potential role(s) of FL in modulating noxious heat sensitivity in vivo, we first injected FL (100 ng/10 μl) into mice hindpaws, and latency to ipsilateral paw withdrawal from a radiant heat stimulus was measured. […] At 12 H after injection, FL induced a significant thermal hyperalgesia (latency drop around 30%) compared to control mice hindpaws injected with vehicle (p<0.001) (FIG. 1A). For comparison, NGF (100 ng/10 μ) induced a significant latency drop of 25% at 12 H (FIG. 1A).

[3] = tested on: TRPV1 positive sensory neurons; test: FL potentiation of capsaicin [Ca2+]i response (Fura-2 imaging) in DRG neurons; assay type: cell-based, mice
Protocol: DRG neurons primary culture: Primary neuronal cultures were established from lumbar (L4 to L6) dorsal root ganglia (DRG) of adult mice as previously described (Boudes et al, 2009). Ganglia were treated twice with collagenase A (1 mg/ml, Roche Diagnostic, France) for 45 minutes (37° C.) and then with trypsin-EDTA (0.25%, Sigma, St Quentin Fallavier, France) for 30 minutes. They were mechanically dissociated by passing 8 to 10 times through the tip of a fire-polished Pasteur pipette in neurobasal (Life Technologies, Cergy Pontoise, France) culture medium supplemented with 10% foetal bovine serum and DNase (50 U/ml, Sigma, St Quentin Fallavier, France). Isolated cells were collected by centrifugation and suspended in neurobasal culture medium supplemented with 2% B27 (Life Technologies), 2 mM glutamine, penicillin/streptomycin (20 U/ml, 0.2 mg/ml). Dissociated neurons were plated on poly-D,L-ornithine (0.5 mg/ml)-laminin (5 μg/ml)-coated glass coverslips at a density of 2500 neurons per well and were incubated in an incubator with a humidified 95% air/5% CO2 atmosphere. Two hours after plating, the culture medium was carefully removed and replaced to eliminate dead cells and tissue debris. The cells were maintained in culture at 37° C. until experiments were performed. […]
Cells were imaged with a inverted microscope equipped with a NEOFLUAR 25×0.8 objective lens (Axiovert 200, Zeiss, Le Pecq, France) and a CCD camera (Cool SNAP ES, Roper Scientific, France). […] A Fura filter cube with 400 long pass dichroic and D510/40m emission band pass was used to collect fluorescence emissions separately for each wavelength. Images were acquired and analyzed with Metafluor software (Molecular Devices). Changes in intracellular calcium concentrations ([Ca^2+]i ) were monitored as changes of the ratio of the fura-2-fluorescence intensity recorded at 340 nm and 380 nm excitation wavelengths (ΔF340/380). […]
Each neuron was stimulated three times by capsaicin at 4-5 min interval. […] Response areas were calculated as a measure of total Ca^2+ influx. […]

[4] = 12H after hindpaw injection of 100 ng/10 μl
[5] = all capsaicin responders, potentiated and unaffected

COc1cccc(NC(=O)/C=C/c2ccc(Cl)cc2)c1 [sb-366791]
foot withdrawal response to von Frey hair filaments after FL injection, vs control mice (TRPV1): did not show any change in the foot withdrawal response

NGF: nerve growth factor, used as positive control
foot withdrawal response decrease (mice hindpaws [1]; [4]): 30% | paw withdrawal latency drop (radiant heat stimulus), thermal hyperalgesia (mice hindpaws [2]): 25%

B1: FL: cytokine which is a natural ligand of the FLT3 receptor (protein, UniProt P49771 27-235, looked up)
Fms-related tyrosine kinase 3 …: TQDCSFQHSPISSDFAVKIRELSDYLLQDYPVTVASNLQDEELCGGLWRLVLAQRWMERLKTVAGSKMQGLLERVNTEIHFVTKCAFQPPPSCLRFVQTNISRLLQETSEQLVALKPWITRQNFSRCLELQCQPDSSTLPPPWSPRPLEATAPTAPQPPLLLLLLLPVGLLLLAAAWCLHWQRTRRRTPRPGEQVPPVPSPQDLLLVEH
cells that respond to capsaicin showing potentiation of the capsaicin response ([3]; FL at 10 and 100 ng/ml, adult DRG neurons): 56% | mean fold increase in TRPV1 response, ΔFarea [3, 5]: ≈ 512% | mean fold increase in TRPV1 response, ΔFpeak [3, 5]: 212% | foot withdrawal response to von Frey hair filaments reduced to, compared to control (mice hindpaws [1]; [4]): 50% | onset of mechanical hyperalgesia (mice hindpaws [1]; hindpaw injection 100 ng/10 μl): within one/two hours | return of mechanical hyperalgesia to control values (mice hindpaws [1]; hindpaw injection 100 ng/10 μl): 6 days | paw withdrawal latency drop (radiant heat stimulus), thermal hyperalgesia (mice hindpaws [2]): around 30% | onset of heat hyperalgesia (mice hindpaws [2]; hindpaw injection 100 ng/10 μl): within one/two hours | return of heat hyperalgesia to control values (mice hindpaws [2]; hindpaw injection 100 ng/10 μl): 6 days
